{
  "source": "patent US20240261333A1",
  "about": "(published 2024)",
  "binders": {"B1": {"name": "N-terminal FLAG tagged B3GNT2 (enzyme, human, UniProt Q9NY97 1-397, looked up)", "chain": "MSVGRRRIKLLGILMMANVFIYFIMEVSKSSSQEKNGKGEVIIPKEKFWKISTPPEAYWNREQEKLNRQYNPILSMLTNQTGEAGRLSNISHLNYCEPDLRVTSVVTGFNNLPDRFKDFLLYLRCRNYSLLIDQPDKCAKKPFLLLAIKSLTPHFARRQAIRESWGQESNAGNQTVVRVFLLGQTPPEDNHPDLSDMLKFESEKHQDILMWNYRDTFFNLSLKEVLFLRWVSTSCPDTEFVFKGDDDVFVNTHHILNYLNSLSKTKAKDLFIGDVIHNAGPHRDKKLKYYIPEVVYSGLYPPYAGGGGFLYSGHLALRLYHITDQVHLYPIDDVYTGMCLQKLGLVPEKHKGFRTFDIEEKNKNNICSYVDLMLVHSRKPQEMIDIWSQLQSAHLKC", "notes": "Overexpressed in cells and pulled down from the lysate with mouse anti-FLAG antibody; also called N-FLAG B3GNT2; N-term FLAG; not shown: N-terminal FLAG tag"}},
  "experiment_in_all_cases": "co-IP, anti-FLAG, lysate of cells with N-FLAG B3GNT2; mass spectrometry",
  "key": {"NUFIP2": {"target": "T1, NUFIP2 (human, UniProt Q7Z417 1-695)", "T1 construct": "also called NP_065823.1", "T1 sequence (looked up)": "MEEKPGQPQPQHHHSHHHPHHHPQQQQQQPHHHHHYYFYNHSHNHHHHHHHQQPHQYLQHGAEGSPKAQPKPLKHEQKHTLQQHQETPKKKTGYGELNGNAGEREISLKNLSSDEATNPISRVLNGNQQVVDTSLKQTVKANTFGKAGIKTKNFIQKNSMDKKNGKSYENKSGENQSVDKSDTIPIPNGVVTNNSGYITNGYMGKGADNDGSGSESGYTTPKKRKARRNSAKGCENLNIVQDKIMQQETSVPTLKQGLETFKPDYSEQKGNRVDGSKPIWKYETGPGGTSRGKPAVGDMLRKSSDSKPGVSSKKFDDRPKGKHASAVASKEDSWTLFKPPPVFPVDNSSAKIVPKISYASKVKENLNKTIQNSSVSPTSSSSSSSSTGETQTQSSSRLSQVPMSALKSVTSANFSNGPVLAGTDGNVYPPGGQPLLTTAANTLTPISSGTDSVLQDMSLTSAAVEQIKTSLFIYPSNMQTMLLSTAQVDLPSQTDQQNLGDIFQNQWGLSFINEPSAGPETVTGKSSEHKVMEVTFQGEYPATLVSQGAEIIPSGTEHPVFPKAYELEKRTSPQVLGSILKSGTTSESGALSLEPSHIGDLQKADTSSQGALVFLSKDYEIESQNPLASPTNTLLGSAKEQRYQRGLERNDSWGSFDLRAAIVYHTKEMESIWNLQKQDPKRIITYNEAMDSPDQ", "protocol": "(§1) Cells were plated in 10-cm cell culture dishes and grown to 60-80% confluency. For each condition, two biological replicates were harvested for co-IP. Cells were washed with PBS and 4 mL of lysis buffer (20 mM HEPES, 1% Triton X-100, 150 mM NaCl, 1 mM EDTA, and 10% glycerol) containing protease inhibitor cocktail was added. Cells were scraped and lysate was incubated at 4° C. under rotary agitation for 1 h. Lysate was centrifuged at 14,000×g for 10 min at 4° C. Supernatant was transferred to a new tube and an aliquot was taken as the input. […] For Western blots, 10 μg/mL Chicken Anti-FLAG (Aves labs ET-DY100) and IgY control (R&D Systems AB-101-C) antibodies were biotinylated (Thermo Fisher Scientific 90407) and added to the respective conditions. Lysates with antibodies were incubated at 4° C. under rotary agitation overnight. For each mL of lysate, 50 μL of Pierce Protein A/G Magnetic Beads (Mass spectrometry; Thermo Fisher Scientific 88803) or Pierce Streptavidin Magnetic Beads (Western blot; Thermo Fisher Scientific 88817) was washed twice with lysis buffer. Lysates with antibodies were added to the beads and incubated at 4° C. under rotary agitation for 4 h. Beads were washed with lysis buffer 3 times and resuspended in lysis buffer for storage.\n(§2) Magnetic beads were resuspended in 100 mM Tris pH 7.8, reduced, alkylated and digested with trypsin at 37° ° C. overnight. This solution was subjected to solid phase extraction to concentrate the peptides and remove unwanted reagents followed by injection onto a Shimadzu HPLC with fraction collector. Eight fractions were collected and after concentration were injected on a Waters NanoAcquity HPLC equipped with a self-packed Aeris 3 μm C18 analytical column 0.075 mm by 20 cm, (Phenomenex). Peptides were eluted using standard reverse-phase gradients. The effluent from the column was analyzed using a Thermo Orbitrap Elite mass spectrometer (nanospray configuration) operated in a data dependent manner for 54 minutes. The resulting fragmentation spectra were correlated against the known database using Proteome Discover 1.4 (Thermo Fisher Scientific)."}, "RPS3": {"target": "RPS3 (human, UniProt P23396 2-243)", "protocol": "as §1, §2"}, "PUM1": {"target": "T2, PUM1 (human, UniProt Q14671-3 2-1188, limits assumed)", "T2 construct": "also called NP_00108494.1 (+1)", "T2 sequence (looked up)": "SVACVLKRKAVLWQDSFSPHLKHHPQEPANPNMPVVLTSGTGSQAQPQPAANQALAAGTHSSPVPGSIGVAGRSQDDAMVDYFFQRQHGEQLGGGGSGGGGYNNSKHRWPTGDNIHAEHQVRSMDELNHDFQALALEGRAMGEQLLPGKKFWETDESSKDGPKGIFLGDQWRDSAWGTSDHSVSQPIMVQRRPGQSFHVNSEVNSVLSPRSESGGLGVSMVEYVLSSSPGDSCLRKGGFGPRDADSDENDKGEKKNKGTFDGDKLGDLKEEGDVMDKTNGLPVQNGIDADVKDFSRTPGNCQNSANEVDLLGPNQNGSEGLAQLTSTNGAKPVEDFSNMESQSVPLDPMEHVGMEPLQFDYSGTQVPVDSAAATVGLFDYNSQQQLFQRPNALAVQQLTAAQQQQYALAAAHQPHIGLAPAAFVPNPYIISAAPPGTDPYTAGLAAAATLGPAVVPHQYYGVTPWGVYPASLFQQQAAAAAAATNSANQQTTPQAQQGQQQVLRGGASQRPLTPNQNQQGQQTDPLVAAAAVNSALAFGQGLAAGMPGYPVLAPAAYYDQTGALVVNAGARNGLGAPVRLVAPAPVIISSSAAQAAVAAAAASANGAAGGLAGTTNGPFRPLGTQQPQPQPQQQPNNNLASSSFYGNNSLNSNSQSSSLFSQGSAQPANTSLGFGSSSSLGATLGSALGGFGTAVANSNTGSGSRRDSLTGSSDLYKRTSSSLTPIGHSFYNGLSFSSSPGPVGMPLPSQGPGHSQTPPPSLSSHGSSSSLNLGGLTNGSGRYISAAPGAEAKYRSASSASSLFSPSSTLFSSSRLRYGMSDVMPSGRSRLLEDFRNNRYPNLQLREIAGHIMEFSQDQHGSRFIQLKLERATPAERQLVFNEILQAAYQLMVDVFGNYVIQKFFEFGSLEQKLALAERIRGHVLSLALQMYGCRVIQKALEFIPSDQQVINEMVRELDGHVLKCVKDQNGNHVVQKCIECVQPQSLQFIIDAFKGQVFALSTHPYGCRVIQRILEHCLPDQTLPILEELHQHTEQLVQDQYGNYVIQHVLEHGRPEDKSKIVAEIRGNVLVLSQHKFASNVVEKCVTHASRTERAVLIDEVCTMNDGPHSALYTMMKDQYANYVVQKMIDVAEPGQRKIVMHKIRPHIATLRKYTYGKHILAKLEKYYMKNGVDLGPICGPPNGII", "protocol": "as §1, §2"}},
  "data": [
    {"binder": "B1", "values": [
      {"measurement": "co-IP mass spectrometry count", "setting": "NUFIP2", "value": 3},
      {"measurement": "co-IP mass spectrometry count", "setting": "RPS3", "value": 10},
      {"measurement": "co-IP mass spectrometry count", "setting": "PUM1", "value": 0}
    ]}
  ]
}
